Reference: the Human Domainome abundance scans (Beltran et al. 2025)
± gives the uncertainty stated by the source.

B1: Zinc finger MYM-type protein 6, residues 427 to 504; numbered along this chain, O95789 (parent)
chain: KLKCQHCNHLFATKPELLFYKGKMFLFCGKNCSDEYKKKNKVVAMCDYCKLQKIIKETVRFSGVDKPFCSEVCKFLSA
B2: Dynamin-binding protein, residues 242 to 304; numbered along this chain, Q6XZF7 (parent)
chain: EEPGTYGVALYRFQALEPNELDFEVGDKIRILATLEDGWLEGSLKGRTGIFPYRFVKLCPDTR

Variants of: B1
Assay: abundance fitness (aPCA) (normalised: wild type 0, dead -1); higher = more abundant; growth selection in yeast, the domain comes from the species named
Conditions: Homo sapiens

**Q.** Which abundance fitness does the source give for H6L here?
**A.** -0.104 ± 0.035

**Q.** For E71K, which abundance fitness is on record?
**A.** 0.16 ± 0.17

**Q.** For F25M, which abundance fitness is on record?
**A.** 0.048 ± 0.035

**Q.** For S33E, which abundance fitness is on record?
**A.** -0.025 ± 0.039

**Q.** For Y36C, which abundance fitness is on record?
**A.** -0.187 ± 0.061

**Q.** For Y36G, which abundance fitness is on record?
**A.** -0.183 ± 0.029

**Q.** For K30E, which abundance fitness is on record?
**A.** -0.037 ± 0.037

**Q.** With K30W as the variant, how does the abundance fitness read?
**A.** -0.146 ± 0.035

**Q.** With I54W as the variant, how does the abundance fitness read?
**A.** -0.079 ± 0.11

**Q.** With F75A as the variant, how does the abundance fitness read?
**A.** 0.488 ± 0.079

**Q.** Which abundance fitness does the source give for L26C here?
**A.** 0.004 ± 0.071

**Q.** For D65R, which abundance fitness is on record?
**A.** -0.908 ± 0.23

**Q.** Which abundance fitness does the source give for F27V here?
**A.** -0.161 ± 0.036

**Q.** With L17M as the variant, how does the abundance fitness read?
**A.** 0.061 ± 0.054

**Q.** For Y48N, which abundance fitness is on record?
**A.** -0.184 ± 0.21

Variants of: B2
Assay: as above
Conditions: Homo sapiens

**Q.** With G38K as the variant, how does the abundance fitness read?
**A.** -1.06 ± 0.46

**Q.** Which abundance fitness does the source give for G38F here?
**A.** -0.71 ± 0.11

**Q.** Which abundance fitness does the source give for G38H here?
**A.** -0.454 ± 0.13

**Q.** With L44Y as the variant, how does the abundance fitness read?
**A.** -0.393 ± 0.088

**Q.** With L44G as the variant, how does the abundance fitness read?
**A.** -0.868 ± 0.12

**Q.** For L44A, which abundance fitness is on record?
**A.** -0.399 ± 0.11

**Q.** With L44W as the variant, how does the abundance fitness read?
**A.** -0.506 ± 0.21

**Q.** For L44N, which abundance fitness is on record?
**A.** -0.567 ± 0.12

**Q.** With P60Y as the variant, how does the abundance fitness read?
**A.** -0.113 ± 0.062

**Q.** Which abundance fitness does the source give for P60E here?
**A.** -0.076 ± 0.15

**Q.** For P60I, which abundance fitness is on record?
**A.** -0.18 ± 0.06

**Q.** Which abundance fitness does the source give for P60N here?
**A.** -0.26 ± 0.066

**Q.** With K57C as the variant, how does the abundance fitness read?
**A.** -0.406 ± 0.054

**Q.** For K57E, which abundance fitness is on record?
**A.** -0.6 ± 0.23

**Q.** With K57Q as the variant, how does the abundance fitness read?
**A.** -0.062 ± 0.1

**Q.** With K57F as the variant, how does the abundance fitness read?
**A.** -0.697 ± 0.081

**Q.** Which abundance fitness does the source give for K57G here?
**A.** -0.58 ± 0.072

**Q.** For K57L, which abundance fitness is on record?
**A.** -0.562 ± 0.074

**Q.** Which abundance fitness does the source give for K57W here?
**A.** -0.677 ± 0.16

**Q.** Which abundance fitness does the source give for K57V here?
**A.** -0.637 ± 0.068

**Q.** With P18C as the variant, how does the abundance fitness read?
**A.** -0.412 ± 0.061

**Q.** With P18G as the variant, how does the abundance fitness read?
**A.** -0.492 ± 0.061

**Q.** Which abundance fitness does the source give for P18D here?
**A.** -0.044 ± 0.059

**Q.** Which abundance fitness does the source give for P18E here?
**A.** -0.006 ± 0.13

**Q.** With P18T as the variant, how does the abundance fitness read?
**A.** -0.333 ± 0.094

**Q.** For P18L, which abundance fitness is on record?
**A.** -0.42 ± 0.075

**Q.** For E36S, which abundance fitness is on record?
**A.** -0.212 ± 0.054

**Q.** For E36P, which abundance fitness is on record?
**A.** -0.171 ± 0.099

**Q.** Which abundance fitness does the source give for E36I here?
**A.** -1.02 ± 0.16

**Q.** For L21D, which abundance fitness is on record?
**A.** -1.03 ± 0.39

**Q.** Which abundance fitness does the source give for L21K here?
**A.** -0.744 ± 0.42

**Q.** For L21R, which abundance fitness is on record?
**A.** -0.839 ± 0.11

**Q.** For L21Y, which abundance fitness is on record?
**A.** -1.03 ± 0.26

**Q.** For L21I, which abundance fitness is on record?
**A.** -0.636 ± 0.19

**Q.** For L21A, which abundance fitness is on record?
**A.** -1.01 ± 0.17

**Q.** Which abundance fitness does the source give for L21E here?
**A.** -0.643 ± 0.38

**Q.** For L21F, which abundance fitness is on record?
**A.** -0.771 ± 0.091

**Q.** Which abundance fitness does the source give for G26E here?
**A.** -1.01 ± 0.34

**Q.** For G26A, which abundance fitness is on record?
**A.** -0.86 ± 0.15

**Q.** For G26M, which abundance fitness is on record?
**A.** -1.02 ± 0.26

**Q.** For R47M, which abundance fitness is on record?
**A.** -0.689 ± 0.18

**Q.** Which abundance fitness does the source give for R47G here?
**A.** -0.604 ± 0.068

**Q.** Which abundance fitness does the source give for R47Q here?
**A.** -0.588 ± 0.25

**Q.** For R47D, which abundance fitness is on record?
**A.** -0.743 ± 0.13

**Q.** Which abundance fitness does the source give for R47L here?
**A.** -0.453 ± 0.084

**Q.** With L16R as the variant, how does the abundance fitness read?
**A.** 0.316 ± 0.058

**Q.** Which abundance fitness does the source give for L16W here?
**A.** -0.501 ± 0.16

**Q.** Which abundance fitness does the source give for L16G here?
**A.** 0.073 ± 0.067

**Q.** Which abundance fitness does the source give for L16C here?
**A.** 0.09 ± 0.054

**Q.** Which abundance fitness does the source give for L16P here?
**A.** -0.697 ± 0.22

**Q.** For Y53L, which abundance fitness is on record?
**A.** 0.077 ± 0.061

**Q.** With Y53P as the variant, how does the abundance fitness read?
**A.** 0.37 ± 0.1

**Q.** For Y53T, which abundance fitness is on record?
**A.** 0.223 ± 0.065

**Q.** Which abundance fitness does the source give for Y53R here?
**A.** 0.211 ± 0.062

**Q.** Which abundance fitness does the source give for Y53K here?
**A.** 0.251 ± 0.29

**Q.** For Y53M, which abundance fitness is on record?
**A.** 0.265 ± 0.11

**Q.** Which abundance fitness does the source give for Y53A here?
**A.** 0.338 ± 0.079

**Q.** For L40S, which abundance fitness is on record?
**A.** -0.325 ± 0.057

**Q.** Which abundance fitness does the source give for L40R here?
**A.** -0.627 ± 0.08

**Q.** With L40V as the variant, how does the abundance fitness read?
**A.** 0.092 ± 0.045

**Q.** For L40K, which abundance fitness is on record?
**A.** -1.11 ± 0.4

**Q.** For V56T, which abundance fitness is on record?
**A.** -0.594 ± 0.087

**Q.** For V56A, which abundance fitness is on record?
**A.** -0.521 ± 0.094

**Q.** Which abundance fitness does the source give for V56G here?
**A.** -0.729 ± 0.075

**Q.** With V56H as the variant, how does the abundance fitness read?
**A.** -0.696 ± 0.12

**Q.** Which abundance fitness does the source give for W39R here?
**A.** -0.144 ± 0.058

**Q.** Which abundance fitness does the source give for W39H here?
**A.** -0.749 ± 0.13

**Q.** Which abundance fitness does the source give for W39M here?
**A.** -0.057 ± 0.14
